According to paper PMC12561191:

Biological target: BAX, the ligand protein coupled on the SPR chip, Q07812
Assay: SPR
Details: natural protein; chains chain; remark: other sources report otherwise

Sequence of BAX, the ligand protein coupled on the SPR chip, Q07812 (Q07812 whole entry): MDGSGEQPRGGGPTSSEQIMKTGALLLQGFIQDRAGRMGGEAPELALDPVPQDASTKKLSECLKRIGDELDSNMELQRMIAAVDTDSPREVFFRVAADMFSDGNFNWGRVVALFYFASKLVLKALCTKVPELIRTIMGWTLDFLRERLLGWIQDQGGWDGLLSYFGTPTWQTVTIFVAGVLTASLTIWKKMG

B1: recombinant human MANF (rhMANF) protein, P55145 25-182 (protein)
chain: LRPGDCEVCISYLGRFYQDLKDRDVTFSPATIENELIKFCREARGKENRLCYYIGATDDAATKIINEVSKPLAHHIPVEKICEKLKKKDSQICELKYDKQIDLSTVDLKKLRVKELKKILDDWGETCKGCAEKSDYIRKINELMPKYAPKAASARTDL
Kd: 11.3 µM
